Residue numbers refer to the chain shown, from its start.
Assays:
Settings in all cases: both partners purified
human HER2-ECD-Fc [1] = molecular target: T1, human HER2-ECD-Fc (Homo sapiens, UniProt P04626); assay: ELISA; microplates coated with human or mouse HER2-ECD-Fc, blocked with 1% BSA at room temperature; NM-02 serially diluted from 160 nM; detected with mouse anti-HA and anti-mouse IgG-alkaline phosphatase
T1 construct: human epidermal growth factor receptor-2 (HER2), extracellular domain; The supplier is named only for the cross-reactivity ELISA; also called recombinant human HER2-Fc; recombinant human HER2-ECD; source: bought: R&D systems

mouse HER2-ECD-Fc = molecular target: T2, mouse HER2-ECD-Fc (Mus musculus, UniProt P70424); assay: as above
T2 construct: mouse HER2 (ErbB2), extracellular domain; also called murine HER2-ECD; recombinant murine HER2-ECD; source: bought: R&D systems
T2 sequence (P70424 23-653): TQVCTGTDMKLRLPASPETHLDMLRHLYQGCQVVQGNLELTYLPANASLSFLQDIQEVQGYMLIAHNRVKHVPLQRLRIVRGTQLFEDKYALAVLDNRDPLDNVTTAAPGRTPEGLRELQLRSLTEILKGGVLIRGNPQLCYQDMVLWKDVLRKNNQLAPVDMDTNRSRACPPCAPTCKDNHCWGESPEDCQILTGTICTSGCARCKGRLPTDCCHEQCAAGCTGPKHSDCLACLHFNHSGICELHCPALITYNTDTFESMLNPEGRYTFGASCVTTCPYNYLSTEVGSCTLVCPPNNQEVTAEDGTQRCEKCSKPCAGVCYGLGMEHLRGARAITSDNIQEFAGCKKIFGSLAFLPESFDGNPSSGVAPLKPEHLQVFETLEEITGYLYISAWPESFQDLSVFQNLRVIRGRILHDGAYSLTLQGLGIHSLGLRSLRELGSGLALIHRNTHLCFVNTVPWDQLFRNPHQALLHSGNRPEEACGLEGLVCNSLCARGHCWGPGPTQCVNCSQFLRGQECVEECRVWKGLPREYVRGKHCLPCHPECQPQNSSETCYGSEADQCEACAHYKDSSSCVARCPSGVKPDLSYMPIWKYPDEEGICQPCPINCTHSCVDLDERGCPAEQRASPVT

[2] = molecular target: T3, HER2-ECD biotinylated at single site (Homo sapiens, UniProt P04626, biotinylated at single site); assay: SPR; Biacore 8K; biotinylated HER2-ECD on a streptavidin chip; sdAbs injected in multi-cycle kinetics, 2-fold dilution series from 5 nM; 100 μL/min, 25°C, HBS-EP+ pH 7.4; 1:1 model
T3 construct: human HER2 extracellular domain; also called ECD of HER2; source: bought: Sino Biological

human HER2-ECD-Fc [3] = molecular target: T1, human HER2-ECD-Fc; assay: ELISA; recombinant human HER2-Fc (1 μg/mL) coated on a MaxiSorp plate; His-tagged sdAb pre-incubated 7 days at 37°C in human, mouse or cynomolgus serum or PBS, then serially diluted; detected with anti-HIS-HRP

B1: NanoMab-02 (NM-02), HA- and His-tagged (VHH)
VHH: QVQLQESGGGSVQAGETLRLSCTASGFTFDDSDMGWYRQAPGNECELVSSISSDGSTYYADSVKGRFTISQDNAKNTVYLQMNSLKPEDTGVYYCAAEGHRYELGTCAALDYWGRGTQVTVSS
notes: camel (Camelus bactrianus) anti-HER2 single-domain antibody from a phage display library; In the ELISA and flow cytometry it was detected through the HA tag only; The microarray used the dual His6 + HA version (methods: 'either HA- and/or His-tagged'); also called dual tagged version of NM-02; duel-tagged NM-02
Human HER2-ECD-Fc [1]
  EC50: 1.2 nM
Mouse HER2-ECD-Fc
  binding result: no binding (tested: 160 nM)

B2: humanised NM-02 variant E (VHH)
VHH: B1 VHH with S11L, A14P, E16G, T17S, T23S, A74S, V78L, K86R, P87A, Q118L
notes: humanised variant E of NM-02, 83.5% human identity; also called mid-humanised candidate; source: ExpiCHO-S, transiently transfected, purified (HisTrap Excel, SEC)
[2]
  binding result: binds

B3: humanised NM-02 variant D (VHH)
VHH: B1 VHH with S11L, A14P, E16G, T17S, T23A, A74S, V78L, K86R, P87A, Q118L
notes: humanised variant D of NM-02; source: ExpiCHO-S, transiently transfected, purified (HisTrap Excel, SEC)
[2]
  binding result: binds

B4: humanised NM-02 variant J (VHH)
VHH: B1 VHH with A14P, E16G, T17S, T23S, A74S, V78L, K86R, P87A
notes: humanised variant J of NM-02, with parental back mutations; source: ExpiCHO-S, transiently transfected, purified (HisTrap Excel, SEC)
[2]
  binding result: binds

B5: humanised NM-02 variant I (VHH)
VHH: B1 VHH with S11L, A14P, E16G, T17S, T23S, A74S, V78L, K86R, P87A
notes: humanised variant I of NM-02, with parental back mutations; source: ExpiCHO-S, transiently transfected, purified (HisTrap Excel, SEC)
[2]
  binding result: binds

B6: humanised NM-02 variant B (VHH)
VHH: B1 VHH with S11L, A14P, T23A, A74S, V78L, K86R, P87A, Q118L
notes: humanised variant B of NM-02; source: ExpiCHO-S, transiently transfected, purified (HisTrap Excel, SEC)
[2]
  binding result: binds

B7: NanoMab-02 (NM-02) (VHH)
VHH: B1 VHH
notes: camel (Camelus bactrianus) anti-HER2 single-domain antibody; residues Gln3 to Ser123 modelled in the structure; The humanised variants were made in ExpiCHO-S with a C-terminal GSG-His tag, and the parent run beside them may have the same format; also called parent; wild type NM-02
[2]
  Kd: ~0.2 nM

B8: humanised NM-02 variant L (VHH)
VHH: B1 VHH with S11L, A14P, E16G, T17S, T23S, V78L, K86R, P87A, Q118L
notes: humanised variant L of NM-02, with parental back mutations; source: ExpiCHO-S, transiently transfected, purified (HisTrap Excel, SEC)
[2]
  binding result: binds

B9: lead humanised NM-02 candidate (variant K) (VHH)
VHH: B1 VHH with S11L, A14P, E16G, T17S, A74S, V78L, K86R, P87A, Q118L
notes: humanised variant K of NM-02, 82.5% human identity; also called humanised variant K; humanised lead; source: ExpiCHO-S, transiently transfected, purified (HisTrap Excel, SEC); not shown: His-tag (with short GSG linker), C-terminal, kept
[2]
  Kd: 0.212 nM
  fold more potent than variant E: ≥ 2 fold
Human HER2-ECD-Fc [3]
  fold drop-off of activity after 7 days at 37°C in human serum versus PBS: 1.5 fold

B10: humanised NM-02 variant M (VHH)
VHH: B1 VHH with S11L, A14P, E16G, T17S, T23S, A74S, K86R, P87A, Q118L
notes: humanised variant M of NM-02, with parental back mutations; source: ExpiCHO-S, transiently transfected, purified (HisTrap Excel, SEC)
[2]
  binding result: binds

B11: humanised NM-02 variant H (VHH)
VHH: B1 VHH with A14P, E16G, T17S, T23S, A74S, V78L, K86R, P87A, G91A, Q118L
notes: humanised variant H of NM-02, with parental back mutations; source: ExpiCHO-S, transiently transfected, purified (HisTrap Excel, SEC)
[2]
  binding result: binds

B12: humanised NM-02 variant G (VHH)
VHH: B1 VHH with S11L, A14P, E16G, T17S, T23S, A74S, V78L, K86R, P87A, G91A
notes: humanised variant G of NM-02, with parental back mutations; source: ExpiCHO-S, transiently transfected, purified (HisTrap Excel, SEC)
[2]
  binding result: binds

B13: humanised NM-02 variant N (VHH)
VHH: B1 VHH with S11L, A14P, E16G, T17S, T23S, A74S, V78L, K86R, Q118L
notes: humanised variant N of NM-02, with parental back mutations; source: ExpiCHO-S, transiently transfected, purified (HisTrap Excel, SEC)
[2]
  binding result: binds

B14: humanised NM-02 variant F (VHH)
VHH: QVQLQESGGGLVQPGGSLRLSCSASGFTFDDSDMGWYRQAPGNECELVSSISSDGSTYYADSVKGRFTISQDNSKNTLYLQMNSLRAEDTAVYYCAAEGHRYELGTCAALDYWGRGTLVTVSS
notes: humanised variant F of NM-02; source: ExpiCHO-S, transiently transfected, purified (HisTrap Excel, SEC)
[2]
  binding result: binds
